Biological target: human phosphopantetheinyl transferase (human) (UniProt Q9NRN7)

Km for ACP in the PPT reaction after replacement of the hydrophobic patch by alanines (data not shown): > 1000 fold
Substance: ACP domain of human fatty acid synthase with the hydrophobic patch Leu2157, Met2158, Val2160 replaced by alanine (from UniProt P49327 2117-2205) (domain or fragment)

From PMC2148441
